Target: Huntingtin Exon 1 with 44 glutamines (HttEx1Q44) amyloid fibrils
Experiment: MST

Question: “E3 ubiquitin ligase CHIP (from UniProt Q9UNE7 1-303) (enzyme)” was tested. Which K app with FP20 did it give?
Answer: Its K app with FP20 is 170 nM.

Question: And the Kd?
Answer: Its Kd is 460 nM.

From publication doi:10.64898/2025.12.19.695423
